According to the supplement of paper PMC9732359:
± gives the uncertainty stated by the source.

Assay: protein stability index of a GFP-peptide fusion (yeast GPS) (PSI 1-4); higher = more stable; sorted into four equal gates, so the index is relative within each strain
Method in brief: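 Tiled yeast protein peptides of 17 residues were each joined downstream of GFP, on plasmids that also express Cherry. The pooled library was maintained in yeast, and mid-log cultures in leucine-free medium were sorted into four equal gates on the GFP/Cherry ratio. Plasmids from every gate were amplified by PCR and sequenced on Illumina, with barcodes linking reads to strains. The protein stability index of a peptide is its gate-number-weighted read frequency summed over the gates.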

LAPELNQAIWKRGVKGV [RPL31A]
protein stability index (pdr5∆): 2.04 ± 0.22 | protein stability index (ubr1∆): 1.57 ± 0.19

LASSFVNGFLNLGYCND [RPN1]
protein stability index (doa10∆): 3.2 ± 0.1 | protein stability index (pdr5∆): 3.33 ± 0.097 | protein stability index (san1∆): 3.27 ± 0.049 | protein stability index (ubr1∆): 3.17 ± 0.082

LATAHIYLSRFLIKASV [SSN8]
protein stability index (doa10∆): 1.23 ± 0.042 | protein stability index (pdr5∆): 1.34 ± 0.051 | protein stability index (san1∆): 1.31 ± 0.16 | protein stability index (ubr1∆): 1.07 ± 0.055

LATLLGHNDWVSQVRVV [ASC1]
protein stability index (doa10∆): 1.94 ± 0.085 | protein stability index (pdr5∆): 2.37 ± 0.082 | protein stability index (san1∆): 1.89 ± 0.1 | protein stability index (ubr1∆): 1.8 ± 0.047

LAYSKIVNGQTFSYVDS [YMR129W/POM152]
protein stability index (doa10∆): 2.25 ± 0.045 | protein stability index (pdr5∆): 2.64 ± 0.059 | protein stability index (san1∆): 2.53 ± 0.054 | protein stability index (ubr1∆): 1.95 ± 0.042

LCDLFVNGSITDQLIQN [NUT1]
protein stability index (pdr5∆): 2.11 ± 0.22 | protein stability index (san1∆): 1.76 ± 0.21 | protein stability index (ubr1∆): 3.44 ± 0.29

LCRQGHNMLNLLIHRKG [PRP8]
protein stability index (doa10∆): 2.33 ± 0.061 | protein stability index (pdr5∆): 2.55 ± 0.068 | protein stability index (san1∆): 2.31 ± 0.091 | protein stability index (ubr1∆): 2.23 ± 0.041

LCSMLQEASQVTFIFGE [MED11]
protein stability index (doa10∆): 2.06 ± 0.053 | protein stability index (pdr5∆): 2.74 ± 0.048 | protein stability index (san1∆): 2.61 ± 0.055 | protein stability index (ubr1∆): 2.56 ± 0.037

LCVLWDDLQSSVIPEVD [YCG1]
protein stability index (doa10∆): 1.88 ± 0.095 | protein stability index (pdr5∆): 1.87 ± 0.068 | protein stability index (san1∆): 2.01 ± 0.087 | protein stability index (ubr1∆): 2.34 ± 0.075

LDCDGGFIDASCIAVMA [RRP45]
protein stability index (doa10∆): 1.87 ± 0.047 | protein stability index (pdr5∆): 1.56 ± 0.049 | protein stability index (san1∆): 2.67 ± 0.071 | protein stability index (ubr1∆): 1.56 ± 0.04

LDERFASRVALNKEKLG [IRR1]
protein stability index (doa10∆): 1.27 ± 0.057 | protein stability index (pdr5∆): 1.52 ± 0.1 | protein stability index (san1∆): 1.57 ± 0.18 | protein stability index (ubr1∆): 1.55 ± 0.087

LDESSEQKNTAKEELNG [YIL149C/MLP2]
protein stability index (doa10∆): 3.1 ± 0.15 | protein stability index (pdr5∆): 2.95 ± 0.27 | protein stability index (san1∆): 3.21 ± 0.072 | protein stability index (ubr1∆): 3.22 ± 0.087

LDNKGSGEDAEEELWNS [YIL149C/MLP2]
protein stability index (doa10∆): 3.31 ± 0.17 | protein stability index (pdr5∆): 2.92 ± 0.14 | protein stability index (san1∆): 3.16 ± 0.093 | protein stability index (ubr1∆): 3.22 ± 0.1

LDNLTEDPNSAAFDEVE [DIS3]
protein stability index (doa10∆): 3.19 ± 0.085 | protein stability index (pdr5∆): 3.3 ± 0.072 | protein stability index (san1∆): 3.22 ± 0.041 | protein stability index (ubr1∆): 3.12 ± 0.043

LDRPEYLKKREAGEVKD [RPL10]
protein stability index (doa10∆): 3.27 ± 0.12 | protein stability index (pdr5∆): 3.15 ± 0.15 | protein stability index (san1∆): 3.35 ± 0.044 | protein stability index (ubr1∆): 3.42 ± 0.084

LDTFIKIDGNPDELIKA [PRE5]
protein stability index (doa10∆): 3.19 ± 0.12 | protein stability index (pdr5∆): 3.19 ± 0.12 | protein stability index (san1∆): 3.31 ± 0.071 | protein stability index (ubr1∆): 3.36 ± 0.079

LEDLKDVYASKVRLNAS [PRP8]
protein stability index (doa10∆): 2.31 ± 0.043 | protein stability index (pdr5∆): 2.1 ± 0.041 | protein stability index (san1∆): 2.47 ± 0.047 | protein stability index (ubr1∆): 2.27 ± 0.04

LEDLKNTKEIAVDLEHH [RRP6]
protein stability index (doa10∆): 2.66 ± 0.061 | protein stability index (pdr5∆): 2.54 ± 0.047 | protein stability index (san1∆): 2.48 ± 0.056 | protein stability index (ubr1∆): 2.7 ± 0.038

LEEHKNHLDELQKKFVT [SMC1]
protein stability index (doa10∆): 2.88 ± 0.08 | protein stability index (pdr5∆): 2.83 ± 0.11 | protein stability index (san1∆): 2.88 ± 0.059 | protein stability index (ubr1∆): 2.91 ± 0.052

LEEVEGSCTGKFGYILC [RPB7]
protein stability index (doa10∆): 2.14 ± 0.067 | protein stability index (pdr5∆): 2.56 ± 0.057 | protein stability index (san1∆): 2.1 ± 0.066 | protein stability index (ubr1∆): 2.21 ± 0.046

LEIALFKYRKARLEPGT [RPO31]
protein stability index (doa10∆): 3.24 ± 0.17 | protein stability index (pdr5∆): 1.69 ± 0.13 | protein stability index (san1∆): 2.37 ± 0.12 | protein stability index (ubr1∆): 2.85 ± 0.09

LEILIVTKDGVRKEFYE [PRE7]
protein stability index (doa10∆): 2.91 ± 0.063 | protein stability index (pdr5∆): 2.54 ± 0.049 | protein stability index (san1∆): 3.14 ± 0.043 | protein stability index (ubr1∆): 2.92 ± 0.049

LEIRNKICSSEMINEQK [RGR1]
protein stability index (doa10∆): 3.02 ± 0.11 | protein stability index (pdr5∆): 2.91 ± 0.14 | protein stability index (san1∆): 3.01 ± 0.15 | protein stability index (ubr1∆): 2.9 ± 0.12

LEKTSRILNFFDKNTKT [YMR153W/NUP53]
protein stability index (doa10∆): 2.59 ± 0.08 | protein stability index (pdr5∆): 3.09 ± 0.087 | protein stability index (san1∆): 2.75 ± 0.089 | protein stability index (ubr1∆): 2.7 ± 0.052

LELNLSVLHSWVQLVQI [YJL039C/NUP192]
protein stability index (doa10∆): 1.28 ± 0.074 | protein stability index (pdr5∆): 1.91 ± 0.085 | protein stability index (san1∆): 2.11 ± 0.12 | protein stability index (ubr1∆): 1.93 ± 0.09

LENKENGLLNEISRLKT [SMC2]
protein stability index (doa10∆): 3.31 ± 0.18 | protein stability index (pdr5∆): 3.29 ± 0.079 | protein stability index (san1∆): 3.15 ± 0.094 | protein stability index (ubr1∆): 3.18 ± 0.13

LESDFVTGASQFQRLAP [PRE2]
protein stability index (doa10∆): 2.88 ± 0.094 | protein stability index (pdr5∆): 2.97 ± 0.11 | protein stability index (san1∆): 3.17 ± 0.086 | protein stability index (ubr1∆): 2.87 ± 0.067

LESDVNIALVSKLRNNI [SRP54]
protein stability index (doa10∆): 2.31 ± 0.065 | protein stability index (pdr5∆): 2.63 ± 0.056 | protein stability index (san1∆): 2.74 ± 0.052 | protein stability index (ubr1∆): 2.98 ± 0.067

LEYNVALNDVYLDADVA [YML031W/NDC1]
protein stability index (doa10∆): 3.32 ± 0.13 | protein stability index (pdr5∆): 3.33 ± 0.13 | protein stability index (san1∆): 3.05 ± 0.12

LFAESHDVLQKLNTLSE [YML103C/NUP188]
protein stability index (doa10∆): 2.77 ± 0.067 | protein stability index (pdr5∆): 3.17 ± 0.072 | protein stability index (san1∆): 3.06 ± 0.065 | protein stability index (ubr1∆): 3 ± 0.05

LFDAAFYMKKDAVEGVS [RPO31]
protein stability index (doa10∆): 2.75 ± 0.24 | protein stability index (pdr5∆): 2.96 ± 0.14 | protein stability index (san1∆): 3.31 ± 0.076 | protein stability index (ubr1∆): 2.65 ± 0.11

LFDTYHASKAIGLPRHS [RRP6]
protein stability index (doa10∆): 2.15 ± 0.061 | protein stability index (pdr5∆): 2.29 ± 0.06 | protein stability index (san1∆): 2.34 ± 0.081 | protein stability index (ubr1∆): 2.08 ± 0.071

LFKKITNVNPSKNFNVI [YML103C/NUP188]
protein stability index (doa10∆): 2.63 ± 0.048 | protein stability index (pdr5∆): 2.37 ± 0.038 | protein stability index (san1∆): 2.73 ± 0.042 | protein stability index (ubr1∆): 2.39 ± 0.036

LFLNNFVSRIPIMFQDF [IRR1]
protein stability index (doa10∆): 1.97 ± 0.057 | protein stability index (pdr5∆): 2.04 ± 0.048 | protein stability index (san1∆): 1.7 ± 0.067 | protein stability index (ubr1∆): 1.85 ± 0.033

LFMKSLIENCKKRNMPL [SWI1]
protein stability index (doa10∆): 2.68 ± 0.053 | protein stability index (pdr5∆): 2.72 ± 0.068 | protein stability index (san1∆): 2.83 ± 0.045 | protein stability index (ubr1∆): 2.82 ± 0.042

LFNNHLNGILADEMGLG [SNF2]
protein stability index (doa10∆): 2.83 ± 0.11 | protein stability index (pdr5∆): 2.64 ± 0.1 | protein stability index (san1∆): 3.28 ± 0.068 | protein stability index (ubr1∆): 2.59 ± 0.092

LFQDGSASLHTRSLKYG [RRP4]
protein stability index (doa10∆): 2.48 ± 0.085 | protein stability index (pdr5∆): 2.76 ± 0.088 | protein stability index (san1∆): 2.59 ± 0.1 | protein stability index (ubr1∆): 2.88 ± 0.059

LFQNVPEQGEEPMKQLN [YAR002W/NUP60]
protein stability index (doa10∆): 3.62 ± 0.15 | protein stability index (pdr5∆): 3.32 ± 0.16 | protein stability index (san1∆): 3.51 ± 0.12 | protein stability index (ubr1∆): 3.17 ± 0.12

LFWKVKEEEGSFNNVIG [PRE2]
protein stability index (doa10∆): 3.13 ± 0.12 | protein stability index (pdr5∆): 3.39 ± 0.11 | protein stability index (san1∆): 3.21 ± 0.071 | protein stability index (ubr1∆): 3.2 ± 0.11

LGCTLVTLLANVRALYM [RMP1]
protein stability index (doa10∆): 1.62 ± 0.17 | protein stability index (pdr5∆): 1.85 ± 0.21 | protein stability index (san1∆): 2.74 ± 0.16 | protein stability index (ubr1∆): 2.06 ± 0.073

LGHPDNYIPGNPLVTPA [COB]
protein stability index (doa10∆): 2.49 ± 0.11 | protein stability index (pdr5∆): 3.07 ± 0.13 | protein stability index (san1∆): 2.93 ± 0.075 | protein stability index (ubr1∆): 2.93 ± 0.068

LGIKVAELTGDSRLSRK [BRR2]
protein stability index (pdr5∆): 2.18 ± 0.19 | protein stability index (san1∆): 2.67 ± 0.16

LGITGLATDVTTLNEMF [PUP3]
protein stability index (doa10∆): 2.2 ± 0.16 | protein stability index (pdr5∆): 2.39 ± 0.11 | protein stability index (san1∆): 2.24 ± 0.16 | protein stability index (ubr1∆): 2.27 ± 0.11

LGLCLVIQIVTGIFMAM [COB]
protein stability index (doa10∆): 1.36 ± 0.053 | protein stability index (pdr5∆): 1.2 ± 0.045 | protein stability index (san1∆): 1.23 ± 0.13 | protein stability index (ubr1∆): 1.42 ± 0.045

LGLKLACLGNDGILRLY [YGL100W/SEH1]
protein stability index (doa10∆): 1.78 ± 0.056 | protein stability index (pdr5∆): 1.75 ± 0.05 | protein stability index (san1∆): 1.86 ± 0.057 | protein stability index (ubr1∆): 1.72 ± 0.034

LGLLTPEVVELCQKSPV [FAS2]
protein stability index (doa10∆): 2.28 ± 0.071 | protein stability index (pdr5∆): 2.73 ± 0.066 | protein stability index (san1∆): 2.11 ± 0.12 | protein stability index (ubr1∆): 2.93 ± 0.081

LGLYVGVDDQILATNSL [YJL039C/NUP192]
protein stability index (doa10∆): 2.64 ± 0.092 | protein stability index (pdr5∆): 3.06 ± 0.12 | protein stability index (san1∆): 2.3 ± 0.11 | protein stability index (ubr1∆): 1.73 ± 0.16

LGTIESAQAETEALLLE [DIS3]
protein stability index (doa10∆): 2.92 ± 0.1 | protein stability index (pdr5∆): 3.09 ± 0.092 | protein stability index (san1∆): 3.18 ± 0.097 | protein stability index (ubr1∆): 2.82 ± 0.062

LGVASFHGTSTKANDKN [FAS2]
protein stability index (doa10∆): 3.09 ± 0.079 | protein stability index (pdr5∆): 2.95 ± 0.092 | protein stability index (san1∆): 3.11 ± 0.075 | protein stability index (ubr1∆): 3.02 ± 0.069

LGYKAKQGFVIYRVRVR [RPL15A]
protein stability index (doa10∆): 2.22 ± 0.1 | protein stability index (pdr5∆): 2.04 ± 0.11 | protein stability index (san1∆): 2.06 ± 0.15 | protein stability index (ubr1∆): 1.84 ± 0.11

LGYKDTSVIQDLSEKIL [BRR2]
protein stability index (doa10∆): 2.77 ± 0.098 | protein stability index (pdr5∆): 2.8 ± 0.098 | protein stability index (san1∆): 2.81 ± 0.063 | protein stability index (ubr1∆): 2.89 ± 0.065
